Experiment: soluble fraction after stress (log2 fold change); higher = more stays soluble; pooled small domains, quantitative proteomics
Conditions: stress: 75 degC
With “HMAPLATLEAGEDGSVKLPNLAGHSIREVAAALGGAKLSLIPIGSGTSWKQTPAPGAVLHSGDTVTVYF” the “soluble fraction (log2)” value was 0.243.
With “HMAPNDELTRQVISVLSGTPQQAFNYKQISKKLNINDSSERRMVSNILRELAGKGEIVEVYQGKYRSKAPA” the “soluble fraction (log2)” value was -0.0901.
With “HMAPPTAEFFAHLPAEALSAVRRSVEEGNARGIDEAILRVETLDGEAGRVLRGLAARYEYGRILELTQR” the “soluble fraction (log2)” value was 0.103.
With “HMAPQSAAAILRYLSSGAIRGVGPATAQRIVERFGTDSLEIIQNRPKELAAINGISINKALSISEEYAKQY” the “soluble fraction (log2)” value was -0.741.
In the case of “HMAPREELIAIHEALDKLEREDPQVSQLVKLRYFVGMTMAEAADAMDLKKRAAEALWTYGKAWLHREIKKN”, the “soluble fraction (log2)” value is reported as -3.24.
For “HMAPRIVTIQIPVDKIRDVIGPGGKVIRSIIERTGVKIDVEDDGRVNVASADGDSAQRAIAIIQELTAT”, the “soluble fraction (log2)” value was -0.101.
In the case of “HMAPSIPSGADIRAAREAAGINLRDFARIVDGPGIAIWSRYETGTPIRVKSISPEVWQKVRDFISQHG”, the “soluble fraction (log2)” value is reported as -0.801.
With “HMAPTADSVPFVIRSVVGGAQPFIVLEDGSKLLVGGVYRKYRLVAVENTRIIFEGPRTAIVT” the “soluble fraction (log2)” value was -1.51.
For “HMAPTPAGNLRSLKSEIVNYTRQSSTAYVYTFKDLSSGELYTARASRYYAAAGDTAYISTAAGAITDM”, the “soluble fraction (log2)” value was 0.121.
For “HMAPTVPEVVRLEEGAARSAIEAAGLSVGSVEFRASSDPAGTVLATRPIAGRKVRPSSAVDLVLSDGRTP”, the “soluble fraction (log2)” value was 0.166.
For “HMAPVEEWAKASVMEDPTLVTETMARIFAQQGQIGKARKAYRHLALTYPAKSTYFAAQLKKLNQR”, the “soluble fraction (log2)” value was -0.473.
For “HMAPVLTATVNTTSGKLNMRAAASATSAKLTSIPRGATVTVLEKGTTWSRISYGGYTGYVMTQYLKFD”, the “soluble fraction (log2)” value was -0.523.
In the case of “HMAPVVELEDVTIVRGKATLLDRVNWVIDETDRWVIVGPNGAGKTTLLQVVSANLHPTSGKAMILDEVL”, the “soluble fraction (log2)” value is reported as 0.176.
In the case of “HMAQILEPSVALKKLLELKQAGFEDETLVGWIRKVEFTRPLTPDDLLEWKGAGISQAVIRAAM”, the “soluble fraction (log2)” value is reported as -0.302.
In the case of “HMAQISDEGLLRGLIVEMFEANPAVVEELLGGRDRKKGFVIGQIMKKTKGMANPALLDQLFYEELEKL”, the “soluble fraction (log2)” value is reported as -1.1.
For “HMAQTEIPYSEFLREVGNGQIKSVIIEGSEITGFYKTSGTSFNVVAPDDPKLVERLMDQGVEVRAQPT”, the “soluble fraction (log2)” value was 0.176.
In the case of “HMAQVVMPNVVGKTEKDATATLEGKNLKVNVEYNLDATSDDGIVKEQSIKSGENIDEGTEITLKVNKV”, the “soluble fraction (log2)” value is reported as -2.27.
In the case of “HMAQWGFNGSEAGDLSFQQGDVIEVVEKVKDDWWRGRVLGSTEIGLFPS”, the “soluble fraction (log2)” value is reported as -0.309.
For “HMARDDVIRLVQLSLDHLPAKYADALEWKYVEGLSTKEIAARLELGSEAAESLLARARRAFKNDFQEIFES”, the “soluble fraction (log2)” value was -1.42.
For “HMAREFPGTIIKRGSRGPDVRWIQQHIGVKLVDGVFGRGTERAVKQFQSRRRLKADGIVGRQTWAAIHN”, the “soluble fraction (log2)” value was -1.16.
For “HMARGATELPYSQLLDRVEAGEITTATTQGNTLLSTARDGKRYITYLPLDTMDEVVPRLDAANVEVKTER”, the “soluble fraction (log2)” value was 0.103.
With “HMARGLRPVPSVFGLDVRQATRTLYAAGFQVSIARGSDVRTRPAAGTLLRVGSTVQLEMPRMESA” the “soluble fraction (log2)” value was -2.2.
In the case of “HMARGTRTRAKLLAAAEVVFARYGYTEASIERITEEAGVGQGTFYLYFASKLEIFEELVDDLNR”, the “soluble fraction (log2)” value is reported as -2.88.
In the case of “HMARLEELSNGSIVEGLLSGEAVTVVSTKWYGSSSMEVFYKTNRGSTGSQILYREDEPSLTVLEKS”, the “soluble fraction (log2)” value is reported as -0.831.
With “HMARPLHVDALIHLGTEIGSRVGGAHAGPHLLVAGHSPMSELVYARLLGIPTLGWMRGQLTFVNLSK” the “soluble fraction (log2)” value was 0.0485.
For “HMARSKSRQSSVLESVPGLGPSRRRNLLRHFGGLQGVVKAGVEDLMAVRGISRTLAETVYDHLHPGS”, the “soluble fraction (log2)” value was -0.735.
In the case of “HMARTIINLPLRNSVDESYNTTVNILQANGFKEVSYNGETVWKKGTGLLTAMQYIKIEFTDTTLVVSGWVQ”, the “soluble fraction (log2)” value is reported as ≥ 1.04.
For “HMARTLSVTVSENYANMRLDSFLFESGLYPSRSKAVKQIESGKVFVNGNEPTKKTIVVANDFIVYEEYAEE”, the “soluble fraction (log2)” value was -2.63.
In the case of “HMARTTIATPWDKINDLLQGGLGNGDFGLIFGNPGGGKSWSLVALGGFAVKLGYNVIHYTLE”, the “soluble fraction (log2)” value is reported as -0.0148.
With “HMASAEDDLTRRARKLLTTSSMLKTLQPDTGERLQWLPQVVRLLAEGVEAPRIVVLIRRAMESG” the “soluble fraction (log2)” value was -1.26.
With “HMASALDFGRYVRSQYSLQEFPLILIAPLNDPHPKEVVRELFNLYLTKPITRSRLFDSLMTVLG” the “soluble fraction (log2)” value was -0.74.
For “HMASDQGAGALREVSAFFEKHGRVPDPDAVDHDEMRLGSIWASIKSAPTDQMRLEDRFGLLD”, the “soluble fraction (log2)” value was 0.135.
With “HMASDYYTTTANLNLRSGAGTTYGSLIIIEKGDTVKLLENVNDHWVKIQYDDKIGYVAMSYLLPIE” the “soluble fraction (log2)” value was -1.31.
With “HMASEKSEQLYQQMKLDIAGMPPDTRLPSIRALMRSYSVSQLLIDRTLGRLREEGALRKRFDGLYTYL” the “soluble fraction (log2)” value was -2.42.
For “HMASELQQVQALLESQRYNEALILIETTIGKGASESTELLFARADVFASSGRHDEAEQAYREL”, the “soluble fraction (log2)” value was -0.145.
In the case of “HMASELVSADEKYSGLVSYLLGRVVVVDQIDHAIALAKKYRYSLRIVTLDGELLSPGGSMTGGAFKNS”, the “soluble fraction (log2)” value is reported as 0.169.
In the case of “HMASEVEVPNVYGMPSSLAERELSAVGLLADYRSRTGTGQQPGTVVHVKPDAGTVVSRGSTVVLFIA”, the “soluble fraction (log2)” value is reported as -0.334.
In the case of “HMASFASRAEEVMTKLLANGQPRIKEVADAMHLSSRTLQRRLEREGVSFAELLDRLRKRLAHDMLAHS”, the “soluble fraction (log2)” value is reported as -1.51.
With “HMASFGDLSGLKRTYPPQGLPDASRIADFLIARNEGDLSVEQVKALERFLFEHPDHERTARLVAATRVPA” the “soluble fraction (log2)” value was -0.0446.
For “HMASFTDAQALEVKDLYPDWSKIPEGTHLEAGQRVRYNGNLYKVRTGQAHDKQSTWTPTDAASLFEAID”, the “soluble fraction (log2)” value was 0.185.
With “HMASIEPLKTSIRIIWYINGEKDSETLLNTPPTAANKANAQKIADMVEQQIQMGIFNRDAVFPSSPKRQ” the “soluble fraction (log2)” value was -1.75.
For “HMASIGVGTIVRVANAVNYNGVKVKAWFNDEGYEVTELSGDRAVLKHNGDLFDAFHVSDLEA”, the “soluble fraction (log2)” value was -1.42.
In the case of “HMASINRIENKNGKVVYRIIVSLGYDKQGKKLKKTITYNVNQTATKKQQENEALKYALDIEDKIKNGHD”, the “soluble fraction (log2)” value is reported as -1.99.
With “HMASITLDQAKEIALTHAGQTADAVWFEKAEQDYDDGILVYELEFAAKGTEYEYEIDAQTGAIREYKWDD” the “soluble fraction (log2)” value was 0.238.
With “HMASLSEREHDVAVLILQGKTYAEIGQAIFISPRTVEHHVASIRRRLEAKSRSDLIAKLRLTIGGTED” the “soluble fraction (log2)” value was -2.68.
In the case of “HMASPTKQLVLEALRASGQPMSSMELSAQIGVSRATAQRYLSTLASAGEVKIQLRYGTTGRPEQEFLAIE”, the “soluble fraction (log2)” value is reported as -1.64.
With “HMASQFSLIVTQADAGMRLDSLLAVSGAYPSRSAAVKQIEAGKVLVNGLARSKRSIVAPGDTIVYEEIP” the “soluble fraction (log2)” value was -0.981.
In the case of “HMASQVERGAVVVTDQRIFFIGVSSEGIEVHGTKIFGMSEKAPLYSHMKGLKKGDSFQFNGLKYVIQDIY”, the “soluble fraction (log2)” value is reported as -3.57.
For “HMASRKTERINRLIDVLQHATSRVPASVLSKILGIGERSVRNYVSEVNEQGQFRIDSSSGGYRLVA”, the “soluble fraction (log2)” value was -0.492.
For “HMASRTLSYSEFMSRVDSGDVTSVTLDGERIIMRTSNNQEFLSIKPEGEDISERLLAKNIEVRAEAQQ”, the “soluble fraction (log2)” value was -0.321.
With “HMASVGTHIKRLRAAKRMTQEELAEQLHVTRQAVSAWETGKALPDVEMLERIAAALDADVTEVIYGA” the “soluble fraction (log2)” value was -0.346.
With “HMATAATGIINNNYVNVRSGPATTYNIVGRLDQGSSIEILGSKNDWYQIKTKQLNGWVKNDFINLQK” the “soluble fraction (log2)” value was -0.283.
With “HMATETELNLQLMRIIDELHTDHNTWGSRKITDYLRLQGYEINRKRIQRLMDVMDIQVVYPK” the “soluble fraction (log2)” value was -2.07.
With “HMATEVEVPDVVGRQMALATQLLEARKLRVNVAEIYDEKTPPGQVVSQSPEAGSSVKEERVVTIYVSR” the “soluble fraction (log2)” value was -0.154.
With “HMATGGKIYIGMNDNGKVVGVSDADKLLEDIPNKVRDVLGIIVDVNLLEENGLKYIEIDVPPYSN” the “soluble fraction (log2)” value was -0.698.
For “HMATGIKAVDNVFGWMNLEQVAKTVGLDIPSVLRASGLPEDTPVDISIKKIPGVDDEELKDSLRQYIEKS”, the “soluble fraction (log2)” value was -0.107.
With “HMATGTVKWFNPNKGFGFIQQDDASKDVFVHSNELNGVYINEGDKVEFDVVETEKGLSAQNIKK” the “soluble fraction (log2)” value was 0.222.
For “HMATHGRRAVIELREKIVSGELPGGTRLFEVSLAETLDISRTPVREALSRLAEEGLLDRLPNGGFVVRR”, the “soluble fraction (log2)” value was -1.18.
With “HMATIGVGSKVTLTTYVDWVGNGLLKTRDFYFVSELNGKRAVLRADSMNGAIYAAVNIDNLRI” the “soluble fraction (log2)” value was -3.66.
In the case of “HMATINGIEKYLSSGLIPGIGPHTAKKLVEKFGLDTLDIMQYNPDRLTEVEGIGDKKAAKISEAFQEQK”, the “soluble fraction (log2)” value is reported as 0.00381.
With “HMATKVNSGVTVRDLAELLGLSSADLIKKLMTMGEMATLTQTLTDDSVKAIADEYDRKIEIVSAAQ” the “soluble fraction (log2)” value was 0.536.
With “HMATLTPLGRLQLARYHAQERATLAATAERFQVSTTTVRRWVGRYHQVVAAGGRPTTADMQDRPSRP” the “soluble fraction (log2)” value was -2.07.
With “HMATMSIDERILEIRSRAGLTQQEMADRLFVTRQAVSRWERGETVPGIDTLRLIAEAFDVRVDQILEL” the “soluble fraction (log2)” value was -1.66.
For “HMATQMSSARRGIATDEMKQVAKDEDVTLDWLLPKIAIGSIIIPSNNVRPQKIHNVGIGKGMKTKVN”, the “soluble fraction (log2)” value was 0.195.
With “HMATTTEPTSPPAATASLEAKINWLFLIFRNKKTVTASEQKFHAEDASTVVGKETLTDDGTTMTKGETAAG” the “soluble fraction (log2)” value was -0.0674.
In the case of “HMATVELELKPEELRAGMILTKDLISGTGMMLLNKGVTLDNVKVEAIQRYYQLDPPLHGVFALVHGK”, the “soluble fraction (log2)” value is reported as -1.32.
With “HMATVGENIRRYRKAQNLSAAKLAEKVGLTQGAILHYERGIRTPGISQLEKIAHALNVSPRM” the “soluble fraction (log2)” value was -0.144.
For “HMATVPNVVGLSEEKAKSRLANNGLNVSVTTEEVSDKSKDGIVSSQTSEGDTVKQGATITITVGKYVEK”, the “soluble fraction (log2)” value was 0.111.
In the case of “HMATYDIDALKVDLPSAKELAQFVYDKTDGLVSLDLIGKPKEEQYIVAKNALEGKKVPAEYLTGFNPY”, the “soluble fraction (log2)” value is reported as 0.702.
For “HMATYTPYDKQGAKLWRVTAYLGMDSVTGKQRNMKKGGFKTKKEAQLYYNQVKLDFENGTLDQ”, the “soluble fraction (log2)” value was -1.36.

Reference: the domain aggregation screens of Martell et al. (2025)
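Also: 20 min heating vs room temperature control held 20 min.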
